Values quoted from earlier work as cited in paper PMC11070850.

Target: mucin 1 (UniProt P15941)
Settings: 10 mM MOPS, 100 mM NaNO3, pH 7.6, room temperature, 60 min (aptamer + mucin 1 + DNA nanospheres); then CuSO4 50 min and calcein 2 min

Sequence of mucin 1 (P15941 24-1158): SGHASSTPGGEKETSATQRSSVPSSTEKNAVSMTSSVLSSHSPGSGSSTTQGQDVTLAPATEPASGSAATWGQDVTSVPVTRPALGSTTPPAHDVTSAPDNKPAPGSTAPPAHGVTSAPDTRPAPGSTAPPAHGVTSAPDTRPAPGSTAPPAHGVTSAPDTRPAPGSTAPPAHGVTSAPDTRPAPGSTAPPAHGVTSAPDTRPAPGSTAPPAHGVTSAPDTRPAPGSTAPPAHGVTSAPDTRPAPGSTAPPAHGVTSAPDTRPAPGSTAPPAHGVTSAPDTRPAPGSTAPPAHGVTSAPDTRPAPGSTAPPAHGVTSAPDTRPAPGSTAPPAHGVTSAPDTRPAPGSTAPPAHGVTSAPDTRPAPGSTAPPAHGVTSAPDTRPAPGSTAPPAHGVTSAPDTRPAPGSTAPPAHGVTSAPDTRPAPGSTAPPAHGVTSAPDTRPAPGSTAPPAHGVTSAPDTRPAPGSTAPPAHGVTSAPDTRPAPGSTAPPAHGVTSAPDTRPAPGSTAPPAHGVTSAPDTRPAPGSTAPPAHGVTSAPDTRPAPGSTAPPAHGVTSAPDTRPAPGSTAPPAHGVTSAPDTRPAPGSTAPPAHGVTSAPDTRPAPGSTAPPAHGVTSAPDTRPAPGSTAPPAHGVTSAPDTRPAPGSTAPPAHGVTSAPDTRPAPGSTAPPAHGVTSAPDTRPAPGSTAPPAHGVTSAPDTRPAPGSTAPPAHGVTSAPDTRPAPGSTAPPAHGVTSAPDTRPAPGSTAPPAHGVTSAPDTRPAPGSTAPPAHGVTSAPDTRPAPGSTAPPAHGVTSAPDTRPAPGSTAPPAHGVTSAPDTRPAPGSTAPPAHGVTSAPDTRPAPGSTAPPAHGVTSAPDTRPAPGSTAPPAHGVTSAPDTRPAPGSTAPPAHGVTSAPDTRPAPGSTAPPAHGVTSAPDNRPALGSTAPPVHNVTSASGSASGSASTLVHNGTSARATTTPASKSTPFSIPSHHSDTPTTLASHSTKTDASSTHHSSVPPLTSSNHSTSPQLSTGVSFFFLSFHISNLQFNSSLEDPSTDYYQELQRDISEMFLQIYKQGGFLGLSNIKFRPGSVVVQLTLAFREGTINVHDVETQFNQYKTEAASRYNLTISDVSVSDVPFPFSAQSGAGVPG

GCAGTTGATCCTTTGGATACCCTGG [mucin 1 aptamer]
Kd: 135 pM
